B1: EH domain-containing protein 3 (Homo sapiens), Q9NZN3 (parent)
chain: MFSWLGTDDRRRKDPEVFQTVSEGLKKLYKSKLLPLEEHYRFHEFHSPALEDADFDNKPMVLLVGQYSTGKTTFIRYLLEQDFPGMRIGPEPTTDSFIAVMQGDMEGIIPGNALVVDPKKPFRKLNAFGNAFLNRFVCAQLPNPVLESISVIDTPGILSGEKQRISRGYDFAAVLEWFAERVDRIILLFDAHKLDISDEFSEVIKALKNHEDKMRVVLNKADQIETQQLMRVYGALMWSLGKIVNTPEVIRVYIGSFWSHPLLIPDNRKLFEAEEQDLFRDIQSLPRNAALRKLNDLIKRARLAKVHAYIISSLKKEMPSVFGKDNKKKELVNNLAEIYGRIEREHQISPGDFPNLKRMQDQLQAQDFSKFQPLKSKLLEVVDDMLAHDIAQLMVLVRQEESQRPIQMVKGGAFEGTLHGPFGHGYGEGAGEGIDDAEWVVARDKPMYDEIFYTLSPVDGKITGANAKKEMVRSKLPNSVLGKIWKLADIDKDGMLDDDEFALANHLIKVKLEGHELPNELPAHLLPPSKRKVAE
partner: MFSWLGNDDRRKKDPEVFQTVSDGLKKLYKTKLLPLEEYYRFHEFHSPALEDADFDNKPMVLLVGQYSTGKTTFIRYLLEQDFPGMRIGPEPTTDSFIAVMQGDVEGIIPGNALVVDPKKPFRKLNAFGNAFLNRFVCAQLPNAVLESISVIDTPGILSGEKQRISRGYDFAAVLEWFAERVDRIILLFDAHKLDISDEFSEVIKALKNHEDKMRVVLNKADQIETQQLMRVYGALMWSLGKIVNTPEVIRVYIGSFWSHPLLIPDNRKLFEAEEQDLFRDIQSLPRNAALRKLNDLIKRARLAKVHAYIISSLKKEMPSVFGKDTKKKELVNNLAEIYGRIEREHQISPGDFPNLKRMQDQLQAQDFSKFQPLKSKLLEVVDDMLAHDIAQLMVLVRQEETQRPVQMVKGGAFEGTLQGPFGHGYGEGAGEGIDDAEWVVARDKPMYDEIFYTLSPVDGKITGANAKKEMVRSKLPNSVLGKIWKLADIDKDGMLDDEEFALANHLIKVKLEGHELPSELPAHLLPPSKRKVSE
B2: EH domain-containing protein 3 (Homo sapiens), Q9NZN3 (parent)
chain: B1 chain
partner: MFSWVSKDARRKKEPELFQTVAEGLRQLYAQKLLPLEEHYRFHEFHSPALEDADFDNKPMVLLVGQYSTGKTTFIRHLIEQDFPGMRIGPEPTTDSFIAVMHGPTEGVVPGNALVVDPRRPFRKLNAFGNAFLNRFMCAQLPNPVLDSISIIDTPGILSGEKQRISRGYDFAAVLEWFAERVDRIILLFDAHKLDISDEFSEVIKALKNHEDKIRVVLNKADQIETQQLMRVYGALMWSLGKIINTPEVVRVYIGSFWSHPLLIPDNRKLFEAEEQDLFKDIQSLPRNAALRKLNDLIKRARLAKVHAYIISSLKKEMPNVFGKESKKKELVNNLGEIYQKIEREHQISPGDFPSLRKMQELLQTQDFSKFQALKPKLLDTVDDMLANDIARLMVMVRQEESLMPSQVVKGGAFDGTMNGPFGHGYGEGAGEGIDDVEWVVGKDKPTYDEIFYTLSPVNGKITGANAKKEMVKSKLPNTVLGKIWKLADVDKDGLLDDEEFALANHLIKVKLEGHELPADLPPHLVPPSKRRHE

Variants of: B1
Details: with ehd3_mouse Ehd3, Q9QXY6

| effect of a mutation on the interaction | Variant |
| --- | --- |
| with no effect | MFSWLGTDDRRRKDPEVFQTVSEGLKKLYKSKLLPLEEHYRFHEFHSPALEDADFDNKPMVLLVGQYSTGKTTFIRYLLEQDFPGMRIGPEPTTDSFIAVMQGDMEGIIPGNALVVDPKKPFRKLNAFGNAFLNRFVCAQLPNPVLESISVIDTPGILSGEKQRISRGYDFAAVLEWFAERVDRIILLFDAHKLDISDEFSEVIKALKNHEDKMRVVLNKADQIETQQLMRVYGALMWSLGKIVNTPEVIRVYIGSFWSHPLLIPDNRKLFEAEEQDLFRDIQSLPRNAALRKLNDLIKRARLAKVHAYIISSLKKEMPSVFGKDNKKKELVNNLAEIYGRIEREHQISPGDFPNLKRMQDQLQAQDFSKFQPLKSKLLEVVDDMLAHDIAQLMVLVRQEESQRPIQMVKGGAFEGTLHGPFGHGYGEGAGEGIDDAEWVVARDKPMYDEIFYTLSPVDGKITGANAKKEMVRSKLPNSVLGKIWKLADIDKDGMLDDDEFALANHLIKVRLEGHELPNELPAHLLPPSKRKVAE [K511R] |

Variants of: B1
Details: with ehd3_mouse Ehd3, Q9QXY6
Remark: another data set of the same source

| effect of a mutation on the interaction | Variant |
| --- | --- |
| with no effect | MFSWLGTDDRRRKDPEVFQTVSEGLKKLYKSKLLPLEEHYRFHEFHSPALEDADFDNKPMVLLVGQYSTGKTTFIRYLLEQDFPGMRIGPEPTTDSFIAVMQGDMEGIIPGNALVVDPKKPFRKLNAFGNAFLNRFVCAQLPNPVLESISVIDTPGILSGEKQRISRGYDFAAVLEWFAERVDRIILLFDAHKLDISDEFSEVIKALKNHEDKMRVVLNKADQIETQQLMRVYGALMWSLGKIVNTPEVIRVYIGSFWSHPLLIPDNRKLFEAEEQDLFRDIQSLPRNAALRKLNDLIKRARLAKVHAYIISSLRKEMPSVFGKDNKKKELVNNLAEIYGRIEREHQISPGDFPNLKRMQDQLQAQDFSKFQPLKSKLLEVVDDMLAHDIAQLMVLVRQEESQRPIQMVKGGAFEGTLHGPFGHGYGEGAGEGIDDAEWVVARDKPMYDEIFYTLSPVDGKITGANAKKEMVRSKLPNSVLGKIWKLADIDKDGMLDDDEFALANHLIKVKLEGHELPNELPAHLLPPSKRKVAE [K315R] |

Variants of: B1
Details: with ehd3_mouse Ehd3, Q9QXY6
Remark: another data set of the same source

| effect of a mutation on the interaction | Variant |
| --- | --- |
| with no effect | MFSWLGTDDRRRKDPEVFQTVSEGLKKLYKSKLLPLEEHYRFHEFHSPALEDADFDNKPMVLLVGQYSTGKTTFIRYLLEQDFPGMRIGPEPTTDSFIAVMQGDMEGIIPGNALVVDPKKPFRKLNAFGNAFLNRFVCAQLPNPVLESISVIDTPGILSGEKQRISRGYDFAAVLEWFAERVDRIILLFDAHKLDISDEFSEVIKALKNHEDKMRVVLNKADQIETQQLMRVYGALMWSLGKIVNTPEVIRVYIGSFWSHPLLIPDNRKLFEAEEQDLFRDIQSLPRNAALRKLNDLIKRARLAKVHAYIISSLRKEMPSVFGKDNKKKELVNNLAEIYGRIEREHQISPGDFPNLKRMQDQLQAQDFSKFQPLKSKLLEVVDDMLAHDIAQLMVLVRQEESQRPIQMVKGGAFEGTLHGPFGHGYGEGAGEGIDDAEWVVARDKPMYDEIFYTLSPVDGKITGANAKKEMVRSKLPNSVLGKIWKLADIDKDGMLDDDEFALANHLIKVRLEGHELPNELPAHLLPPSKRKVAE [K315R;K511R] |

Variants of: B2
Details: with ehd1_human EHD1, Q9H4M9

| effect of a mutation on the interaction | Variant |
| --- | --- |
| with no effect | MFSWLGTDDRRRKDPEVFQTVSEGLKKLYKSKLLPLEEHYRFHEFHSPALEDADFDNKPMVLLVGQYSTGKTTFIRYLLEQDFPGMRIGPEPTTDSFIAVMQGDMEGIIPGNALVVDPKKPFRKLNAFGNAFLNRFVCAQLPNPVLESISVIDTPGILSGEKQRISRGYDFAAVLEWFAERVDRIILLFDAHKLDISDEFSEVIKALKNHEDKMRVVLNKADQIETQQLMRVYGALMWSLGKIVNTPEVIRVYIGSFWSHPLLIPDNRKLFEAEEQDLFRDIQSLPRNAALRKLNDLIKRARLAKVHAYIISSLKKEMPSVFGKDNKKKELVNNLAEIYGRIEREHQISPGDFPNLKRMQDQLQAQDFSKFQPLKSKLLEVVDDMLAHDIAQLMVLVRQEESQRPIQMVKGGAFEGTLHGPFGHGYGEGAGEGIDDAEWVVARDKPMYDEIFYTLSPVDGKITGANAKKEMVRSKLPNSVLGKIWKLADIDKDGMLDDDEFALANHLIKVRLEGHELPNELPAHLLPPSKRKVAE [K511R] |

Variants of: B2
Details: with ehd1_human EHD1, Q9H4M9
Remark: another data set of the same source

| effect of a mutation on the interaction | Variant |
| --- | --- |
| decreasing interaction | MFSWLGTDDRRRKDPEVFQTVSEGLKKLYKSKLLPLEEHYRFHEFHSPALEDADFDNKPMVLLVGQYSTGKTTFIRYLLEQDFPGMRIGPEPTTDSFIAVMQGDMEGIIPGNALVVDPKKPFRKLNAFGNAFLNRFVCAQLPNPVLESISVIDTPGILSGEKQRISRGYDFAAVLEWFAERVDRIILLFDAHKLDISDEFSEVIKALKNHEDKMRVVLNKADQIETQQLMRVYGALMWSLGKIVNTPEVIRVYIGSFWSHPLLIPDNRKLFEAEEQDLFRDIQSLPRNAALRKLNDLIKRARLAKVHAYIISSLKKEMPSVFGKDNKKKELVNNLAEIYGRIEREHQISPGDFPNLKRMQDQLQAQDFSKFQPLKSKLLEVVDDMLAHDIAQLMVLVRQEESQRPIQMVKGGAFEGTLHGPFGHGYGEGAGEGIDDAEWVVARDKPMYDEIFYTLSPVDGKITGANAKKEMVRSKLPNSVLGKIWKLADIDKDGMLDDDEFALANHLIKVRLEGHELPNELPAHLLPPSKRKVAE [K511R] |
